Laboratory results from patent US20250340658A1 (TWIST BIOSCIENCE, published 2025).
Numbering of substitutions follows the chain as printed.

B1: GLP1R-3 (antibody, human IgG2, lambda, V domains shown)
VH: QVQLVESGGGVVQPGRSLRLSCAASGFTFSSYGMHWVRQAPGKGLEWVSFISYDESNKYYADSVKGRFTISRDNSKNTLYLQMNSLRAEDTAVYYCAKHMSMQEGAVTGEGQAAKEFIAWLVKGRVRADLVGDAFDVWGQGTLVTVSS
VL: QSVLTQPPSVSAAPGQKVTISCSGSSSNIADNYVSWYQQLPGTAPKLLIYDNNKRPSGIPDRFSGSKSGTSATLGITGLQTGDEADYYCGTWDNYLGAGVFGGGTKLTVLG
notes: full length human IgG2; also called GLP1R01-3
B2: GLP1R-222-023 (antibody, V domains shown)
VH: B1 VH with T28S, S31D, S49A, E55A, S56N, G111W
VL: QSVLTQPPSVSAAPGQKVTISCSGSSSNIGNNDVSWYQQLPGTAPKLLIYENTKRPSGIPDRFSGSKSGTSATLGITGLQTGDEADYYCGTWDAGLSTGVFGGGTKLTVL
notes: IgG
B3: GLP1R-222-082 (antibody, V domains shown)
VH: B1 VH with S31A, G33S, S49A, F50L, E55A, S56T, G111F
VL: B2 VL with N31S, N32K, D33Y, E51D, T53N, A94I, G95S, L96P, T98A, G99W
notes: IgG
B4: GLP1R-222-052 (antibody, V domains shown)
VH: B1 VH with S30N, S31N, G33P, S49A, F50V, E110G
VL: B2 VL with N31K, N32R, D33S, E51D, T53N, P56A, G90V, A94R, G95S, T98A
notes: IgG
B5: GLP1R-222-090 (antibody, V domains shown)
VH: B1 VH with T28S, S31D, M34I, S49A, F50L, D54E, E55G, G111K
VL: B2 VL with G30A, N31D, D33Y, E51D, T53N, P56A, G90A, A94N, G95R, T98A
notes: IgG
B6: GLP1R-222-081 (antibody, V domains shown)
VH: B1 VH with S30D, S31N, G33A, M34L, S49A, F50L, E55A, S56G, R125F
VL: QSVLTQPPSVSAAPGQKVTISCSGSSSNIGSDYVSWYQQLPGTAPKLLIYDNNKRSSGIPDRFSGSKSGTSATLGITGLQTGDEADYYCGTWDESLRSWVFGGGTKLTVL
notes: IgG
B7: GLP1R-222-014 (antibody, V domains shown)
VH: B1 VH with T28A, S31N, S85N, G111W
VL: B2 VL with N32H, E51D, T53N, P56H, A94T, G95S, T98A
notes: IgG
B8: GLP1R-222-056 (antibody, V domains shown)
VH: B1 VH with T28P, G33A, S49A, F50V, E55R, E110Y, R125F
VL: B2 VL with N31S, D33Y, V34I, E51D, T53D, S57A, A94T, G95S, T98V, V100E
notes: IgG
B9: GLP1R-222-073 (antibody, V domains shown)
VH: B1 VH with S30R, S31D, S49A, S52R, S56I, K123G
VL: B2 VL with S26G, E51D, T53N, P56A, A94R, L96P, S97N
notes: IgG
B10: GLP1R-222-012 (antibody, V domains shown)
VH: B1 VH with S30N, S31N, S49A, F50V, Y53D, D54E, E55G, E110V
VL: B2 VL with E51D, N52D, T53D, A94T, G95S, T98V, V100E
notes: IgG

target: T1, full length human GLP-1R with N-terminal FLAG tag and C-terminal GFP tag, on CHO cells (human, UniProt P43220 24-463); assay: flow cytometry, expressing minus parent CHO cells
T1 construct: whole, on cells; the cell line itself is tied to UniProt P43220; also called FLAG-GLP-1R-GFP; CHO-GLP-1R
Experimental: (§1) GLP-1R IgG clones were tested in a binding assay coupled to flow cytometry analysis as follows: FLAG-GLP-1R-GFP expressing CHO cells (CHO-GLP-1R) and CHO-parent cells were incubated with 100 nM IgG for 1 h on ice, washed three times and incubated with Alexa 647 conjugated goat-anti-human antibody (1:200) (Jackson ImmunoResearch Laboratories, 109-605-044) for 30 min on ice, followed by three washes, centrifuging to pellet the cells between each washing step. All incubations and washes were in buffer containing PBS+1% BSA. […] Cells were analyzed by flow cytometry and hits (a hit is an IgG that specifically binds to CHO-GLP-1R) were identified by measuring the GFP signal against the Alexa 647 signal. Flow cytometry data of binding assays with 100 nM IgG are presented as dot plots. Analyses of binding assays with IgG titrations are presented as binding curves plotting IgG concentrations against MFI (mean fluorescence intensity).

Subtraction	Binder
224000	B1
241000	B2
224000	B3
350000	B4
227000	B5
221000	B6
237000	B7
217000	B8
225000	B9
225000	B10

target: T1, full length human GLP-1R with …; assay: flow cytometry, GLP1R-expressing CHO cells
Experimental: as §1

Median RL1-H of Expressing Singlets	Binder
232000	B1

target: T1, full length human GLP-1R with …; assay: flow cytometry, expressing vs parent CHO cells
Experimental: as §1

MFI Ratio	Binder
740	B1
778	B2
711	B3
13.7	B4
525	B5
850	B6
794	B7
946	B8
984	B9
775	B10

target: T1, full length human GLP-1R with …; assay: flow cytometry, expressing vs parent CHO cells; remark: another data set of the same source
Experimental: as §1

MFI Ratio	Binder
993	B1

target: T1, full length human GLP-1R with …; assay: flow cytometry titration, CHO GLP1R cells
Experimental: as §1

Bmax	EC50 [nM]	Binder
153000	15.4	B1
220000	18.4	B2
135000	11.5	B3
228000	17.4	B4
1.08e+06		B5
194000	22.5	B6
213000	34.3	B7
293000	77.4	B8
151000	13.1	B9
234000	23.1	B10

target: T1, full length human GLP-1R with …; assay: flow cytometry titration, CHO GLP1R cells; remark: another data set of the same source
Experimental: as §1

Bmax	EC50 [nM]	Binder
800000	11.5	B1

target: T1, full length human GLP-1R with …; assay: flow cytometry, expressing vs parent CHO cells; remark: another data set of the same source
Experimental: as §1

MFI Ratio	Binder
740	B1
778	B2
711	B3
13.7	B4
525	B5
850	B6
794	B7
946	B8
984	B9
775	B10

target: T1, full length human GLP-1R with …; assay: flow cytometry, GLP1R-expressing CHO cells; remark: another data set of the same source
Experimental: as §1

Median RL1-H of Expressing Singlets	Binder
224000	B1
241000	B2
224000	B3
378000	B4
227000	B5
221000	B6
237000	B7
218000	B8
225000	B9
225000	B10

target: T1, full length human GLP-1R with …; assay: flow cytometry, expressing vs parent CHO cells; remark: another data set of the same source
Experimental: as §1

MFI Ratio	Binder
993	B1

target: T1, full length human GLP-1R with …; assay: flow cytometry, expressing minus parent CHO cells; remark: another data set of the same source
Experimental: as §1

Subtraction	Binder
232000	B1
